# Data from article PMC3988563 (2014).
# Target: Ribosome termination complex (70S ribosomes, fMet-STOP mRNA and fMet-tRNA^fMet) (E. coli)
# Assay: with RF3:GDP
binder,measurement,value
"Fluorescein-labeled GAQ-RF1 (single-cysteine L82C or A220C) (natural protein, fluorescein (fluorescein-maleimide) on the introduced cysteine) MKPSIVAKLEALHERHEEVQALLGDAQTIADQERFRALSREYAQLSDVSRSFTDWQQVQEDIETAQMMLDDPEMREMAQDELREAKEKSEQLEQQLQVLLLPKDPDDERNAFLEVRAGTGGDEAALFAGDLFRMYSRYAEARRWRVEIMSASEGEHGGYKEIIAKISGDGVYGRLKFESGGHRVQRVPATESQGRIHTSASTVAVMPELPDAELPDINPCDLRIDTFRSSGAGAQHVNTTDSAIRITHLPTGIVVESQDERSQHKNKAKALSVLGARIHAAEMAKRQQAEASTRRNLLGSGDRSDRNRTYNFPQGRVTDHRINLTLYRLDEVMEGKLDMLIEPIIQEHQADQLAALSEQE",koff,0.08 s⁻¹
